Measured values from PMC10339064.

Molecular target: Peroxisome proliferator-activated receptor alpha (PPARα), wild type, FLAG-tagged (human) (UniProt Q07869)
Sequence of UniProt Q07869 (Q07869 whole entry): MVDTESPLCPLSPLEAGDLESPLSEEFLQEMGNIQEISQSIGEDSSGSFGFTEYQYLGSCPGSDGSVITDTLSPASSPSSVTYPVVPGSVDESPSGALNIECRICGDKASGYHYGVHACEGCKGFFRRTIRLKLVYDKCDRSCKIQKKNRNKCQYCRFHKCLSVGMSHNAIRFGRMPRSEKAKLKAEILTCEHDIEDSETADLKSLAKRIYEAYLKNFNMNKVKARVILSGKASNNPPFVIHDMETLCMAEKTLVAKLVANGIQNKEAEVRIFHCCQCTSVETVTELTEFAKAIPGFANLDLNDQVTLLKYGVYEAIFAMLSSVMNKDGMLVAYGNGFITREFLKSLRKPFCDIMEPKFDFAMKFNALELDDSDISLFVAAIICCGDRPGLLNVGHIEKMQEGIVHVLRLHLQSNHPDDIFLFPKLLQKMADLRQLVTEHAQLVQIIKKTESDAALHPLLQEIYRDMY

**Q.** Which PPRE-driven luciferase reporter in HEK293 cells activated by ectopic PPARα; reduction by expression of CtBP2 does the source give for “C-terminal binding protein 2 (CtBP2), wild type, HA-tagged (from UniProt P56545 1-445) (natural protein)” here?
**A.** 53%
